For three molecules, Kd results are on record in PMC10237670, “Biochemical properties of naturally occurring human bloom helicase variants”.

The target in data set [1] is T1, WT BLMcore (Homo sapiens, UniProt P54132 636-1298). Put plainly: EMSA; 5 mM MgCl2; smear; estimated apparent KD; 50 mM Tris-HCl pH 7.5, 50 mM KCl, 5 mM MgCl2, 1 mM DTT, 0.1 mg/mL BSA, 40 nM DNA, 30 min room temperature; 5% gel in TBE + 100 mM KCl at 4 C. To be noted: protein: recombinant, (HisTrap purified).
For data set [2], the target named is T1, WT BLMcore. Put plainly: EMSA; 5 mM MgCl2; distinct shift; estimated apparent KD; 50 mM Tris-HCl pH 7.5, 50 mM KCl, 5 mM MgCl2, 1 mM DTT, 0.1 mg/mL BSA, 40 nM DNA, 30 min room temperature; 5% gel in TBE + 100 mM KCl at 4 C. The conditions noted are these: protein: recombinant; (HisTrap purified); label: 3'-FAM on oAV320 (strand 2); 18 bp duplex, 3' overhang 39 nt on strand 1.

T1 sequence (P54132 636-1298): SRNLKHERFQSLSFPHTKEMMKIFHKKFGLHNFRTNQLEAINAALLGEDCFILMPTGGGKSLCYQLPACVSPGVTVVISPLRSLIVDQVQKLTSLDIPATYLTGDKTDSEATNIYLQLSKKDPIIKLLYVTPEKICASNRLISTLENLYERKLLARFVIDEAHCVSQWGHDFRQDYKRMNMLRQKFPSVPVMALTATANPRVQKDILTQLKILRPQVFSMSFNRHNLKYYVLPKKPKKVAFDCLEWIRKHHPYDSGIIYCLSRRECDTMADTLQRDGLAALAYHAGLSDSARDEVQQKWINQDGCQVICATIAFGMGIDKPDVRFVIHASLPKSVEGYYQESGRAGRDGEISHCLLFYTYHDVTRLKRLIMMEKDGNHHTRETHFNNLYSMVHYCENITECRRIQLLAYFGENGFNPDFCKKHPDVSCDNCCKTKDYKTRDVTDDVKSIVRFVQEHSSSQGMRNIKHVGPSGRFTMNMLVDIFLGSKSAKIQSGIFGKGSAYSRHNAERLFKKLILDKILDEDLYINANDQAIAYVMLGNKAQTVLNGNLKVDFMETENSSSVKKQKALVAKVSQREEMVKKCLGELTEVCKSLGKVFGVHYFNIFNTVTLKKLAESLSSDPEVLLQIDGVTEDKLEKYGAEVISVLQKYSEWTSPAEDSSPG

B1: G4 DNA with 3' ssDNA overhang (FAM-oRC96) (structured_DNA)
DNA: GGGTTAGGGTTAGGGTTAGGGTTTTTTTTTT
B1: in the data set with WT BLMcore [1] (label: 3'-FAM, intramolecular G4 (folded in 100 mM KCl) with 3' T-rich ssDNA tail), the Kd was about 125 nM.

B2: FAM-dT30 (ssDNA) (ssDNA)
DNA: TTTTTTTTTTTTTTTTTTTTTTTTTTTTTT
Take B2: in the data set with WT BLMcore [1] (single strand), the Kd is about 125 nM.

B3: partial dsDNA with 3' ssDNA overhang (oRC32/FAM-oAV320) (dsDNA)
DNA 1: TGGCGACGGCAGCGAGGCTTAGGGTTAGCGTTAGCGTTAGGGTTTTTTTTTTTTTTT
DNA 2: GCCTCGCTGCCGTCGCCA
Turning to B3, the Kd with WT BLMcore [2] was about 79 nM.
